The source of these data is the DeepSol protein solubility set.

The data set can be described thus: soluble on expression in E. coli; label from the status in PepcDB or PDB records.
As to “SSIRFYLAPNDADFTVYYTGTDGNWYETKATYKKVSVKKYEVTLPEITIGGAAEIEFKGVHRGPPNTVISAKFDVVGGTTQPEPEPDPAPEPQPAPEPEPGTSVNPAAPTAVDPATAPSCVEKGYINIPDTKGVDYFIGGELKHAGQHFYEGQKASVKVTAKPQNGYQFAAGAKTEWSFDFSGEVKDCSDSSEDPKPAAVEGRHFDAIGHEFAVEADPVDPTKPNAFTAKVTAESHMKYATVRIETDATFLDPQKYNLTLDQIEPGVTLQKRNVNIGNGFITMDVVPVKDGKPVDSAVVPKDAVFTFTNNLSENKNLKIALDVYGANKSTPKPPDIISPPDGAQWVHGRVPNPPMPKRCGLRIAVVADLSTSLKYADSNGFDESKKAANALIDSLAGTPAELGIYNFAGGAPRNPAGSTYGQNPPYISLQSDDGVSRAKSIVSNWNGNGSTNWEAGLKQVAAGNYDVVYFITDGMPTYSSKAPQLGLGGEFVQESALNQAIDAANELKAAGTRVVPIMVDLTVGGKNAQHTTVTQDLVLKNVRFWKRGTSNSEPGLYFQFTNKYVDAASYVGDDTTANFEIAYKNGGFKVWERTSRGRNIDVTRDQSKWTYGPREVKTMGEDISGTGDTIRVEQYSQLAAQMKKIGEELALRCNGVVKVKKRIVDENGRAIEDGVPGWEFTLSAGGQDIIDPGNGDRVRKSLKATSSANEDRGTASWNIMSEQEQQLTLVETQQPGFNLYKRNDKNAVCTETRDGVMKPIEVTNDGEFGFKVKMRAKDKKLSSVSCVVDNYKQPETPPGKLTFKKAQYNGDKIEEIPGLGGATFEIYPSKGDQPDYSAEALYTIKPGQESIEVKTTGTFFLVETKAPKGLNLLAQPVKFEISVDETTKKYKISVGSTSSGQVQAKGEGDKMILTVADTTAGELPKTGG”, the “soluble on expression in E. coli” value is recorded as “not soluble”. Turning to “MNLLVTSSLGVLLHLVVLCQADDHSELLVNTKSGKVMGTRVPVLSSHISAFLGIPFAEPPVGNMRFRRPEPKKPWSGVWNASTYPNNCQQYVDEQFPGFSGSEMWNPNREMSEDCLYLNIWVPSPRPKSTTVMVWIYGGGFYSGSSTLDVYNGKYLAYTEEVVLVSLSYRVGAFGFLALHGSQEAPGNVGLLDQRMALQWVHDNIQFFGGDPKTVTIFGESAGGASVGMHILSPGSRDLFRRAILQSGSPNCPWASVSVAEGRRRAVELGRNLNCNLNSDEELIHCLREKKPQELIDVEWNVLPFDSIFRFSFVPVIDGEFFPTSLESMLNSGNFKKTQILLGVNKDEGSFFLLYGAPGFSKDSESKISREDFMSGVKLSVPHANDLGLDAVTLQYTDWMDDNNGIKNRDGLDDIVGDHNVICPLMHFVNKYTKFGNGTYLYFFNHRASNLVWPEWMGVIHGYEIEFVFGLPLVKELNYTAEEEALSRRIMHYWATFAKTGNPNEPHSQESKWPLFTTKEQKFIDLNTEPMKVHQRLRVQMCVFWNQFLPKLLNATACDGELSSSGTSSSKGIIFYVLFSILYLIF”, the “soluble on expression in E. coli” value is “soluble”. With “MTELAQLQASTEQAAALLKAMSHPKRLLILCMLSGSPGTSAGELTRITGLSASATSQHLARMRDEGLINSQRDAQRILYSIKNEAVNAIIATLKNVYCP”, the “soluble on expression in E. coli” value was “not soluble”.

In the case of “VKLDDHTYQINGRVLLDDLNKKFGIEFEDSEDIDTIGGWLQSQNTNLQKDDFVDTEYDRWTITEIDNHQIIWVNLNYEFNSGRPSVNEEQEDDERD”, the “soluble on expression in E. coli” value was “not soluble”.

“MGSDKIHHHHHHMKALALFSGGLDSMLAMKLITAQGIEVKALNINIGFGSTSDKSEIMKKRAAMVGADFEMIDVRNSYLQEVLFNPQYGYGKHFNPCIDCHAFMFKTALAMLKEENASFIITGEVLGQRPMSQRSDAMAKVKKLALDEEDLILRPMCAKNLPLTKPEREGWVDREKLEGIIGRSRKRQLELAAKFGLEDFESPGGGCLLTLDSFAKKIRDFIEFDKDMQVNDAQLLKYGRHLRLPNGAKMIIGRNELENTLLKGLKTPKYEAIEIGDLIGAYSLVDEKISEKDLELALKIALTYTKHEVGKSYELKFKNQAYTSIAFENKADINQFFIS”: the “soluble on expression in E. coli” value is listed as “not soluble”. On to “MLLHLIYGPTCSGKTDMAIQIAQETGWPVVALDRVQCCPQIATGSGRPLESELQSTRRIYLDSRPLTEGILDAESAHRRLIFEVDWRKSEEGLILEGGSISLLNCMAKSPFWRSGFQWHVKRLRLGDSDAFLTRAKQRVAEMFAIREDRPSLLEELAELWNYPAARPILEDIDGYRCAIRFARKHDLAISQLPNIDAGRHVELIEAIANEYLEHALSQERDFPQWPEDGAGQPVCPVTLTRIRGSRSHHHHHH”, for which the “soluble on expression in E. coli” value was “soluble”. Consider “MKLAVAGKGGVGKTTVAAGLIKIMASDYDKIYAVDGDPDSCLGQTLGLSIEEAYAITPLIEMKDEIREKTGDGGLLILNPKVDGDLDKYGRYIDDKIFLIRMGEIKKGGSQCYCRENSFLGSVVSALFLDKKEAVVMDMGAGIEHLTRGTAKAVDMMIAVIEPNLNSIKTGLNIEKLAGDLGIKKVRYVINKVRNIKEEKLIKKHLPEDKILGIIPYNELFIELSLKGEEIWQSTNPAFVNLHDIYQKLRLEVG”, for which the “soluble on expression in E. coli” value was “soluble”. As to “VNEVLAKNLSLLKEYQPETYLKLDRYIKGEYVPKDNSVEKILLARQDDLIINILVKCSDKDFLLCDHENPINEAYAWIDKYIDPSNKADIVFGMGLAFHLEVLLTSFPNKKVIVIEPNINLFYQIACIRNLEPVIKKAEIIVDEDLDVILERINSLFWDTEKGGIQVQPLEVYGEMFPEMWDKLRDSFIKLANNFTVDIATRRKFGELWVHNNIKNLNKICEASNAGVLVGKFKGIPGILVSAGPSLEKNIHLLKGLEDKCVIMAAGTAVRIMEDFGLAPHFMVGIDAGAKEGEIHSNVKNKDIYFIYSNQVSTYSVDGYKGPKFVMNYPIDMYTAGFFEYAGIKSDFFLSGPSVANTCFDILFKMGCDPIIIIGQDMAFTYGSMYAGEVPGTVVDGAGEAKRRGYVLAKDIYGNEVYTTRPFLAMRNWFEGYFEKVRDKTTIINATEGGLNISYARNETLEAALKSCNLSESGIKDHIRSLHEEGKFADTVASKIEEYRAYVQREIRRLEQLSKRQLETAEDLKRDVYHPSKSRSRFIKAVNSINEMSDRVLQSPIYNSLLKNLVEIDFYIIKAEVDRLVKILTKYDDIKNVYVNAILSQNQKLNASLGKIKKFFDESDVTA”, the “soluble on expression in E. coli” value is on record as “soluble”.

With “MGSDKIHHHHHHMRPTQKGDYLNPMSDLFQDYSEAAARSGAYDEMFAQGHVARRSYGQVSGALRELSLADVTARADSMARTFLDRGVTFDYAGEERPFPLDIVPRVIPADEWNVLERGVAQRVKALEAFLNDVYGRMAVVTDGVIPRQLVTTSAHFHRAVHGFEPSGGVRVHVSGIDVVRDAAGTFRVLEDNVRVPSGVSYVLENRRAMAKGLPEAFGQQHIRPVEEYPRRLLSALRKTAPAGVDDPTVVVLTPGVFNSAYFEHTLLAGLMGVELVEGRDLICRGNRVYMRTTAGEQRVDVIYKRIDDDFLDPLQFRSDSMLGCPGLVNAARAGGVTIANAVGNGVADDKLVYSYVPDLIRYYLHEEPIIANVDTFRLEEKEAREHVLDRLDELVVKPVDGSGGKGLVIGPDATKDELDALRKRVIADPRGWIAQPVLQLSTVPTLSGDKFGPRHVDLRPFAVNDGDDVWVLPGGLTRVALKEGSLIVNSSQGGGSKDTWVLADSPQLPAEIIPRQSVTVREQVSVWPVESNWRDRQTEQQQ”, the “soluble on expression in E. coli” value is “not soluble”.

As to “MNENDGKNSAEKHNNSQDEGSIQPDKTQLDDVADDAEKKSEKSSNCMIWSQNVLKKAKISNMTREFRNNKEYKPNVTTSISEKMMDKNRYRHIFCGDDNRVVLKERDPSNDYIHASWMVMPDGFQFISTQGPIKNTIADFWHMVYTEKCHVIVMLCQYIEEDQEKCQRYFSDTSEKEYGDYRVKVVEKTVELWNPVKVTGIQVQKKNCPTKHMVYHYFYYDWHDQVAPLDPAPMIKMYKAVLNKSSSKPIVVHCSAGVGRTSTFVGIYLSQIMIRENSSVDMVEILKRLRTMRLGAVQSQLQYVYLVVLMIELFIDDKIIKRNANYESLLKKYADVTRKVTAAIMEEEEKRRQRKKREEEKEKEQEKESPATKEEKKKENGLKTNRQRDNREAPSKPPRKNPEELARSKLQGPRKLTLKNRDGNAEEPTAKDNEERSTAEDKSKNRQKSVYVKMPLSSKEKGSKHERAKQGARKNAARKAKKKPSVTGNY”, the “soluble on expression in E. coli” value is listed as “not soluble”. Regarding “MTQPDRGKDRAGRRTKRFLTPSEKYEIWLQLVRQEVTIAEAAEQQQVDRSTIMRIRTVAKEGALAALAASKPGVAAAQRDYEMEAAKAEIARLSEAVKQMAVKLTLVEGKGGWA”, the “soluble on expression in E. coli” value was “not soluble”.

“MWPPQGVPMSTPGSSAGHMPLGAGAASFPGQMNGPPQHPGMQYSGQMQQLPYGQMEGNHAMYDQRIMGQRAAGRPGMMPDYPQMPMGQTPGNTMMRMPVQYPSGPSQMAGHPHMQQMQYGHMMRAPPVSVYGQMNNAQQYAVTAHPNPVPQPYYHPEVRQLYETTAGYIVDRELLAEGHVTPGSNGVEAMLTHDASDFLKVSPQTDVLFSIWPVTKSNDPNIQYEVYINQKSVMNSHMQVKSIFIKDFLISGMNSIHIVYNGPQQMYKYACEFVTRKSVIELRKILIQKRVIEGQQLATQQKQQYMQMANKRQAGFYPVSLNCVLSKKRMFTPAKHHECKKIFDLAQLINANKGMTRYFCQTCNAYFKFEDITADYFLLNFLQSIPAGVNDLIVEKTGVVRSGDVEDVKPKRGKKKTDNDANGNGIKRIKSEIIVKQETFTDMHGRNVPFSPMPMPGSVPPDWTRLQSPSFSMQSPNKVQLGPATPATPGMVFQNPASAGSMLNMSSPRQTMIPGMHPMMPPHDVTMRSGSAPYTPESVKNDKNDELLMHIEGLYVCDVPILENEQLTVRYMDGTKDLCFEDSMVYEFAESPKHQQQIDGPPQTLMAPGSTASSSGSTFTPPFDDIHLGNRPSH”: the “soluble on expression in E. coli” value is “not soluble”. For the sequence “AHHHHHHGSKEKRKYFMAHRIGVIQRSKIRELFERASKMENVISLGIGEPDFDTPNNIKEAAKRALDEGWTHYTPNAGIPELREAIAEYYKKFYGIDVEVDNVLVTAGAYEATYLAFETMLEQGDEVIIPDPAFVCYVEDAKLAEAKPIRLPLREENDFKPDIDELLERITKRTRMIVINYPNNPTGAVLDKETAKAIADVAEDYNIYILSDEPYEHFLYDDAKHYPMIKFAPDNTILANSFSKTFAMTGWRLGFVIAPTQIIREMIKLHAYIIGNVASFVQVAGIEALRSKESWKAVEEMRKEYNERRKLVLQRLRKMPYIKVREPKGAFYVFPNISETEMSSEEFSEWLLEKAKVVVIPGTAFGENGEGYVRISYATSREKLIEAMDRIEKALEEI”, the “soluble on expression in E. coli” value is “soluble”. For “MPISIQQISYIHPDKEVLFSDLNFAISKGQKLGLVGNNGCGKSTLLQIIAGQLAPSSGVIVRPDDLYYIPQHFGQYDSLTIAQALQIDHKQKALHAILAGDASIENFSILNDDWNIEERSVAALDSWGLGQFPLSYPMNLLSGGEKTRVFLAGMDIHNPSVILMDEPTNHLDSSGRQRLYDWVEKWRSTLLVVSHDRTLLNLLPEICELEKHQISYYGGNYEFYKEQKTLMQEALQQRIEEKEKALRTARKVARETAERRDKQNVRGEKRNLKKGVPRIVLNGLQSKSEKSTAKLTGAHQEKAEKLTDERNQLRSSLSPTAALKTDFNNSGLHTGKILVTAEEINFGYHPDQPQLWQAPLSFQLKSGDRLRIEGGNGSGKTTLLKIITGQLQPLKGTLIQANFTYVYLNQEYSIINDRNSILEQAYAFNGRNLPEHEIKIILNRYLFPASEWDKSCRKLSGGEKMRLAFCCLMISNNMPDMFILDEPTNNLDIQSIEIITATIKNYAGTVIAISHDNYFIQEIGVEQSIFLS”, the “soluble on expression in E. coli” value is recorded as “not soluble”. In the case of “MCIKGCKRRIHPTRLLMLIRTEAPADILVVDQLLKNVFATEAEADLVMALRENGQRTLSLVACDDEGEIVGHVMFSPVTLEGEDLNWQGLAPLAVKEEYRRQGIGAELVKEGLSSLGELGYPACVVLGDPAYYSRFGFEDAARYSLRCAWDVPQGAFQVVALWERELDGRCGVIEYSQEFAAL”, the “soluble on expression in E. coli” value is recorded as “not soluble”.

In the case of “GRYEIRFSGAGGQGLILAGVIMAEAASIYDGKQAVQSQSYGPEARGGASKSEVIISDGPVDYPKATQCDALLALTQEACDKYSADLKEGGVLLVDSDLVTKLPPGNYQTTAFNIINTAKNDVGREIVANIVALGAMVALTGVVSKEAAEKAVLSRVPEAFVELNRKAFQMGFEKALAAKK”, the “soluble on expression in E. coli” value is given as “soluble”.
